Data on 1 molecule can be found in US20210063414A1, “METHODS FOR PREVENTING AND/OR TREATING BONE LOSS CONDITIONS BY MODULATING IRISIN” (Dana-Farber Cancer Institute, Inc., priority 2018, published 2021).

Experiment in all cases: Crosslinking/co-immunoprecipitation/mass spectrometry (TMT quantitative proteomics) to identify irisin receptors
Holding throughout (type): binding

Assay [1] deals with T1, MLO-Y4 cell surface proteins (Mus musculus, UniProt Q9WTP6).
T1 construct: endogenous in cells; host or cells: MLO-Y4
As to conditions: co-precipitated protein Ak2 (KAD2_MOUSE). In outline: (§1)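 Relative protein abundance came from 6-plex TMT MS3 quantitation on an Orbitrap Fusion Lumos, after in-gel trypsin digestion of Coomassie-stained SDS-PAGE lanes. Input was a Ni-NTA pulldown (250 mM imidazole elution) of lysates from murine MLO-Y4 cells. These cells were treated on ice with His-tagged irisin or adipsin (10 nM, 20 min) in serum-free medium, then crosslinked with 1.5 mM DTSSP for 30 min.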

For assay [2], the target named is T2, MLO-Y4 cell surface proteins (Mus musculus, UniProt Q9CY64).
T2 construct: endogenous in cells; host or cells: MLO-Y4
T2 sequence (Q9CY64 3-295): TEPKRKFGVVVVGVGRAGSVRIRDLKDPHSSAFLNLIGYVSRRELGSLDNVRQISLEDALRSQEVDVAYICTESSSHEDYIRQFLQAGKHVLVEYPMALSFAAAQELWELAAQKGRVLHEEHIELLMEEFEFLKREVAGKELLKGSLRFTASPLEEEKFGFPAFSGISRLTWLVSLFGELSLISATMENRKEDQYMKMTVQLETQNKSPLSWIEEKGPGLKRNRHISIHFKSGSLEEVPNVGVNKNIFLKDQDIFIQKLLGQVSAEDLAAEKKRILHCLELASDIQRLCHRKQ
As to conditions: co-precipitated protein Blvra (BIEA_MOUSE). In outline: as §1

In assay [3] the target is T3, MLO-Y4 cell surface proteins (Mus musculus, UniProt P56567).
T3 construct: endogenous in cells; host or cells: MLO-Y4
T3 sequence (P56567 1-97): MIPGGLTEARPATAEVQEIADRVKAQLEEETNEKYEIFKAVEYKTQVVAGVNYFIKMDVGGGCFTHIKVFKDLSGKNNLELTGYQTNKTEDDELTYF
The note with it: co-precipitated protein Csta (CYTA_MOUSE). In outline: as §1

In assay [4] the target is T4, MLO-Y4 cell surface proteins (Mus musculus, UniProt P39654).
T4 construct: endogenous in cells; host or cells: MLO-Y4
T4 sequence (P39654 1-663): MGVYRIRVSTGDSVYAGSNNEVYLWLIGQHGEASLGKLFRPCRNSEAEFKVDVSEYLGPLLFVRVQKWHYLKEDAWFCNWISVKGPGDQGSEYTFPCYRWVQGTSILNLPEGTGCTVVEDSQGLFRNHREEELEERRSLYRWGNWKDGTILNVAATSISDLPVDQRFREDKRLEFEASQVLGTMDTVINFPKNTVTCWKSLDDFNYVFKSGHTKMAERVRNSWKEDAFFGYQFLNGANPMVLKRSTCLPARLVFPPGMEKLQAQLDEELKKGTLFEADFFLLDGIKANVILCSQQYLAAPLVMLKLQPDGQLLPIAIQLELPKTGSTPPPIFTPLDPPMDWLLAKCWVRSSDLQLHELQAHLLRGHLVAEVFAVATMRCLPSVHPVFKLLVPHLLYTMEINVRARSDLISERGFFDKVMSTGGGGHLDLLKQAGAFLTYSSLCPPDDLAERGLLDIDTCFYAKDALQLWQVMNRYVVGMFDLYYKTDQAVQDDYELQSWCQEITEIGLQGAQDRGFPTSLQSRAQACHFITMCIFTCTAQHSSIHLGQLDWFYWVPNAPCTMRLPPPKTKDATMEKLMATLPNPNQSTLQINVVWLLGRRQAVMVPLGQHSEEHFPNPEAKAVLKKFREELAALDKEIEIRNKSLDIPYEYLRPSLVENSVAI
As to conditions: co-precipitated protein Alox15 (LOX15_MOUSE). In outline:
as §1

B1: irisin: secreted cleaved form of FNDC5; recombinant human/mouse irisin with C-terminal his tag produced in HEK293 cells (protein)
chain: DSPSAPVNVTVRHLKANSAVVSWDVLEDEVVIGFAISQQKKDVRMLRFIQEVNTTTRSCALWDLEEDTEYIVHVQAISIQGQSPASEPVLFKTPREAEKMASKNKDEVTMKE
modifications: left off: small tags and cut ends
notes: secreted cleaved form of FNDC5; recombinant human/mouse irisin with C-terminal his tag produced in HEK293 cells
With B1, the TMT signal-to-noise ratio in assay [1] came to 61.9776; in assay [2] it was 86.0306; in assay [3], 2.132; in assay [4], 9.028. In addition, the “irisin/adipsin TMT signal-to-noise ratio” value was 0.546 in assay [1], 0.284 in assay [2], 0.013 in assay [3] and 0.064 in assay [4].
